# Experimental data: patent publication US20250243265A1 (published 2025)
# Positions count from the first letter of the chain named. Where two headings read alike, the source gives them in different places.
# B1: 1D8 Fab displayed on phage (Fab, V domains shown)
# VH: EVQLVESGGGLVQPGGSLRLSCAASGFTFTDYDIHWVRQAPGKGLEWVAGISPYGGYTDYADSVKGRFTISADTSKNTAYLQMNSLRAEDTAVYYCAREAGSRLLSVMDYWGQGTLVTVSS
# VL: DIQMTQSPSSLSASVGDRVTITCRASQDVSTAVAWYQQKPGKAPKLLIYSASFLYSGVPSRFSGSGSGTDFTLTISSLQPEDFATYYCQQSYTTPPTFGQGTKVEIK
# B2: 1D8.4F5 Fab displayed on phage (Fab, V domains shown)
# VH: B1 VH with Y32D, G50E
# VL: B1 VL with Y92F
# Tests used:
# [1] = target: T1, linear diubiquitin (Boston Biochem) (UniProt P0CG48 1-152); experiment: phage competition ELISA; fit parameter m3
# [2] = target: T1, linear diubiquitin (Boston Biochem); experiment: phage competition ELISA; fit parameter m3; remark: listed apart in the source
binder,measurement,setting,value
B1,IC50,[1],5.77 µM
B2,IC50,[2],2.21 µM
